Values of other authors in PMC13142048.

Assays:
[1] = target: CD96 (TACTILE) (Homo sapiens) (UniProt P40200)
[2] = target: CD226 (DNAM-1) (Homo sapiens) (UniProt Q15762)
TIGIT (Homo sapiens) = TIGIT (Homo sapiens) (UniProt Q495A1)
Chain of UniProt Q495A1 (Q495A1 22-141): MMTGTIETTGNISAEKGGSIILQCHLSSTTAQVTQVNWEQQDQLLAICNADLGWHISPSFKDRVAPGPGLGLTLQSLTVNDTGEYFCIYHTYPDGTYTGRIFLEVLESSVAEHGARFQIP

Chain of UniProt Q15762 (Q15762 19-254): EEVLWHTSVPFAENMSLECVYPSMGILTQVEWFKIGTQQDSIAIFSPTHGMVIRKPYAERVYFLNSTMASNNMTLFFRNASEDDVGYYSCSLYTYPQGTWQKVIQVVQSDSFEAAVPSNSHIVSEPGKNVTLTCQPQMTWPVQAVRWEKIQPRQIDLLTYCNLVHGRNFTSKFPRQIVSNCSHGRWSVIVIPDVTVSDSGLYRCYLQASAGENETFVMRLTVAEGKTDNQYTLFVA
Chain of UniProt P40200 (P40200 22-519): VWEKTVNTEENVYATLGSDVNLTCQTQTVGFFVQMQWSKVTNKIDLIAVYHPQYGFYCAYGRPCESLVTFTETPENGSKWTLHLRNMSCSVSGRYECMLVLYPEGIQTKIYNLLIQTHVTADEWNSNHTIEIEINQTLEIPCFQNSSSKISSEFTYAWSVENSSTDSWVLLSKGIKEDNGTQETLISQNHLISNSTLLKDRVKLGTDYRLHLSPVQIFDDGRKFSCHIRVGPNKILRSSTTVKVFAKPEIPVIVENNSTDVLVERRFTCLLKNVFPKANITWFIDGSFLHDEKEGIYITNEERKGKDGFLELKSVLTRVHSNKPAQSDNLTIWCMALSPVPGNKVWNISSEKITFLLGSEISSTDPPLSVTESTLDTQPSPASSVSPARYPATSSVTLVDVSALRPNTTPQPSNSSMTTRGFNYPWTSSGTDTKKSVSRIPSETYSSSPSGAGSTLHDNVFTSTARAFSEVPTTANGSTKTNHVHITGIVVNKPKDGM

- Kd [1]: 37.6 nM
- Kd [2]: 119 nM
- Kd (TIGIT (Homo sapiens)): 3.15 nM
Substance: CD155 (from UniProt P15151)
